# T1: Pepsinogen C (PGC) (human)
# T1 chain: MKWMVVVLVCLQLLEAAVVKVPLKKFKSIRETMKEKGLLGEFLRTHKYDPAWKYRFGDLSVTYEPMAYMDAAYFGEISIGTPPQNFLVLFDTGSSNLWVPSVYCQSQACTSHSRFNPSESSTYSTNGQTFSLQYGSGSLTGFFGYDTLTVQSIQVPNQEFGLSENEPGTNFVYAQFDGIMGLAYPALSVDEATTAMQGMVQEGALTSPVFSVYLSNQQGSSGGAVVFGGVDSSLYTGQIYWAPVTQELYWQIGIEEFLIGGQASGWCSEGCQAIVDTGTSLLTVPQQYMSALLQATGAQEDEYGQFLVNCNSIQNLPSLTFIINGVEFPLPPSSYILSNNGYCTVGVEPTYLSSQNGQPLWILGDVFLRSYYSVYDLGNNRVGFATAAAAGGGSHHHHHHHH
# Biological target: T1, Pepsinogen C (PGC)
# Assay: SPR, 37C, order of magnitude only
row,Binder,Kd [nM]
1,"mAb 27 (antibody, V domains shown) VH: QIQLVQSGPELKKPGETVKISCKASGYTFTNYGMNWVKQAPGKGLKWIGWINTYTGDPTYADDFKGRFAFSLETSASNGYLQIDNLKKEDTATYFCARRDIFAMDYWGQGTSVTVSS VL: DIQMTQTTSSLSASLGDRVTITCRASQDIMKYLHWYQQKPDGTIKLLFYYTSRLHSGVPSRFSGSGSGTDYSLTISNLEQEDIATYFCQQDVKYPWTFGGGTKLEIK",~0.1
2,"mAb 123 (antibody, V domains shown) VH: QIQLVQSGPELKKPGETVKISCKGSGYTFTNYGMNWVKQAPGKGLKWMGWINTYTGDPTYADDFKGRIAFSLETSASTAYLQIDNLKNEDTATYFCARRDIFAMDYWGQGTSVTVSS VL: DIQMTQTTSSLSASLGDRVTITCRASQDIMKYLHWYQQKPDGTVKLLIYYTSRLHSGVPSRFSGSGSGTDYSLTISNLEQEDIATYFCQQDIKYPWTFGGGTKLEIK",~0.1
3,"mAb 75 (antibody, V domains shown) VH: QIQLVQSGPELKKPGETVKISCKASGYTFTNYGMNWVKQAPGKGLKWMGLINTYTRGPTFADDFKGRFAFSVETSANTAYLQINNLKTEDTATYFCARRGEYYGSSYVDYWGQGTTLTVSS VL: DIQMTQITSSLSASLGDRVTISCRASQDIMHFLNWYQQKPDGTVKLLIYYTSRLHSGVPSRFSGSGSGTDYSLTITNLEPEDIATYYCQQHSNLPPTFGGGTKLEIK",~0.1

# Continued by falling Kd, values first:
row,Kd [nM],Binder
1,~0.1,"mAb 11 (antibody, V domains shown) VH: QVQLQQPGTELVKPGASVKLSCKASGYTFTNYWMHWVKQRPGQGLEWIGNINPFNGATNYNDNFKTKATLTVDKSSSTAYMHLSSLTSEDSAVYYCARYDYSKYYAMDYWGQGTSVTVSS VL: ENVLTQSPAIMAASPGDKVTMTCSASSSINSAHFHWYQQKPGTSPKLWIYRTSNLASGVPARFSGRGSGTSYSLTISSMEAADAATYYCQQWSDYPWTFGGGTKLEIR"
2,~0.01,"mAb 22 (antibody, V domains shown) VH: QIQLVQSGPELKKPGETVKISCKASGYTFTNYGMNWVKQAPGKGLKWIGWINTYTGDPTYADDFKGRFAFSLETSASNGYLQIDNLKKEDTATYFCARRDIFAMDYWGQGTSVTVSS VL: DIQMTQTTSSLSASLGDRVTITCRASQDIMKYLHWYQQKPDGTIKLLIYYTSRLHSGVPSRFSGSGSGTDYSLTISNLEQEDIATYFCQQDVKYPWTFGGGTKLEIK"

# Source: US20260365759 (published 2026)
